Assay results from patent US20240182553A1 (NANJING GENSCRIPT BIOTECH, published 2024).
Substitutions are numbered along the chain they refer to.

T1: Ang2 protein (R&D system) (UniProt O15123 19-496)
T1 sequence (looked up): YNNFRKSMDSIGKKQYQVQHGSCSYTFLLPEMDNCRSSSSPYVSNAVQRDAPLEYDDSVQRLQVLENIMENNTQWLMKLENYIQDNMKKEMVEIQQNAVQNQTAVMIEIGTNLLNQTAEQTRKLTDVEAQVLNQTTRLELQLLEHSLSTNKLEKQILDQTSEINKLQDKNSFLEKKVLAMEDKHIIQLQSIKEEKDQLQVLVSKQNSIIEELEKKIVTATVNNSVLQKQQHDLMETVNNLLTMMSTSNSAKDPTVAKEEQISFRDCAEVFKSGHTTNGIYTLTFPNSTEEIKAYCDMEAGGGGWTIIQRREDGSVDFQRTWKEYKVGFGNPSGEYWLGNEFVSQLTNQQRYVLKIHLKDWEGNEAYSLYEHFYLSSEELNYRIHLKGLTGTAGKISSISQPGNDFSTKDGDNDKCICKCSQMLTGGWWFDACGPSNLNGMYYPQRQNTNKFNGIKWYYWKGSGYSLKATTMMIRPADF

B1: hABTAA-VH-VLvegfr (bispecific antibody, human IgG4 S228P, kappa)
heavy chain: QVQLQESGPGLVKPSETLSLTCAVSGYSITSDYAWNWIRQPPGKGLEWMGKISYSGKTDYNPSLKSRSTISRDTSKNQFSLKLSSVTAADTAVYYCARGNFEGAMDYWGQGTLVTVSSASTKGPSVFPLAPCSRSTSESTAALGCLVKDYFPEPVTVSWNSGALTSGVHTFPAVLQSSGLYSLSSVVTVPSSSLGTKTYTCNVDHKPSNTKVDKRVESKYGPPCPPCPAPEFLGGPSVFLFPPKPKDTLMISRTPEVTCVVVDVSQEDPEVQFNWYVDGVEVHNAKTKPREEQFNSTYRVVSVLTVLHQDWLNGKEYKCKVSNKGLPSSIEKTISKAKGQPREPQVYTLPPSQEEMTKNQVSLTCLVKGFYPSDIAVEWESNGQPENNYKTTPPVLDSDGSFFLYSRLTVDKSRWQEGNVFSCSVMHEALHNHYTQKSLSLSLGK
light chain fusion polypeptide (VEGF-trap at C' of LC): DIQMTQSPSSLSASVGDRVTITCKASQSVSNDVAWYQQKPGKAPKLLIYYASNRYPGVPSRFSGSGSGTDFTLTISSLQPEDFATYYCQQDYSSPWTFGQGTKLEIKRTVAAPSVFIFPPSDEQLKSGTASVVCLLNNFYPREAKVQWKVDNALQSGNSQESVTEQDSKDSTYSLSSTLTLSKADYEKHKVYACEVTHQGLSSPVTKSFNRGECESKYGPPSPPSPSDTGRPFVEMYSEIPEIIHMTEGRELVIPCRVTSPNITVTLKKFPLDTLIPDGKRIIWDSRKGFIISNATYKEIGLLTCEATVNGHLYKTNYLTHRQTNTIIDVVLSPSHGIELSVGEKLVLNCTARTELNVGIDFNWEYPSSKHQHKKLVNRDLKTQSGSEMKKFLSTLTIDGVTRSDQGLYTCAASSGLMTKKNSTFVRVHEK
B2: hABTAA-VH-vegfrVL (bispecific antibody, human IgG4 S228P, kappa)
heavy chain: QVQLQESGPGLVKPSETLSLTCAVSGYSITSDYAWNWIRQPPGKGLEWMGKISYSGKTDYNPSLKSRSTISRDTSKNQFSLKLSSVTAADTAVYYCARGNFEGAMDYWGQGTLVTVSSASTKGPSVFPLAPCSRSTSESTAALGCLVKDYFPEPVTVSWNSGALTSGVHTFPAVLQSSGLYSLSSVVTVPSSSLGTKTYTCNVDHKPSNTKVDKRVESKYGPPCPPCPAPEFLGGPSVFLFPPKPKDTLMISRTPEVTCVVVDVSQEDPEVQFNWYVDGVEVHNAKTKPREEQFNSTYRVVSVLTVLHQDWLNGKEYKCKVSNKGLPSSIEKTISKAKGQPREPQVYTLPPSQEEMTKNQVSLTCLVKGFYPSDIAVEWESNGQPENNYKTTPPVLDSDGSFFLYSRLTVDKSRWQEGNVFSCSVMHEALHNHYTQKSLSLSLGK
light chain fusion polypeptide (VEGF-trap at N' of LC): SDTGRPFVEMYSEIPEIIHMTEGRELVIPCRVTSPNITVTLKKFPLDTLIPDGKRIIWDSRKGFIISNATYKEIGLLTCEATVNGHLYKTNYLTHRQTNTIIDVVLSPSHGIELSVGEKLVLNCTARTELNVGIDFNWEYPSSKHQHKKLVNRDLKTQSGSEMKKFLSTLTIDGVTRSDQGLYTCAASSGLMTKKNSTFVRVHEKGGGGSGGGGSGGGGSDIQMTQSPSSLSASVGDRVTITCKASQSVSNDVAWYQQKPGKAPKLLIYYASNRYPGVPSRFSGSGSGTDFTLTISSLQPEDFATYYCQQDYSSPWTFGQGTKLEIKRTVAAPSVFIFPPSDEQLKSGTASVVCLLNNFYPREAKVQWKVDNALQSGNSQESVTEQDSKDSTYSLSSTLTLSKADYEKHKVYACEVTHQGLSSPVTKSFNRGEC
B3: vegfr-5A7B9-VL1.1-VH3 (bispecific antibody, human IgG4 S228P, kappa)
heavy: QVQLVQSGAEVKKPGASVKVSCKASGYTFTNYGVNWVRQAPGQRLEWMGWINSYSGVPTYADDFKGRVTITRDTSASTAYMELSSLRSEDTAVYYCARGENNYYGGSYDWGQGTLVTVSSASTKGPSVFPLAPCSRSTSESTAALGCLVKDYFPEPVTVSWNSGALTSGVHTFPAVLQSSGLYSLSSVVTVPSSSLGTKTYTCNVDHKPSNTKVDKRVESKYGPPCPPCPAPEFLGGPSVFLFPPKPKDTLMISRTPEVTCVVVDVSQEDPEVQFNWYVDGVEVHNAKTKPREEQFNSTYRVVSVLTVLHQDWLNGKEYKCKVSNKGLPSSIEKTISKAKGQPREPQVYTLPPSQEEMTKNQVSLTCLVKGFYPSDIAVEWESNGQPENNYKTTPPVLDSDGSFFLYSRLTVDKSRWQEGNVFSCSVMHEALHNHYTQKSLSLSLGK
light: B2 light chain fusion polypeptide (VEGF-trap at N' of LC) with P276T, Y307F, W316L, Q320G
B4: 7F10B2-VL3-vegfr-VH3 (bispecific antibody, human IgG4 S228P, kappa)
heavy: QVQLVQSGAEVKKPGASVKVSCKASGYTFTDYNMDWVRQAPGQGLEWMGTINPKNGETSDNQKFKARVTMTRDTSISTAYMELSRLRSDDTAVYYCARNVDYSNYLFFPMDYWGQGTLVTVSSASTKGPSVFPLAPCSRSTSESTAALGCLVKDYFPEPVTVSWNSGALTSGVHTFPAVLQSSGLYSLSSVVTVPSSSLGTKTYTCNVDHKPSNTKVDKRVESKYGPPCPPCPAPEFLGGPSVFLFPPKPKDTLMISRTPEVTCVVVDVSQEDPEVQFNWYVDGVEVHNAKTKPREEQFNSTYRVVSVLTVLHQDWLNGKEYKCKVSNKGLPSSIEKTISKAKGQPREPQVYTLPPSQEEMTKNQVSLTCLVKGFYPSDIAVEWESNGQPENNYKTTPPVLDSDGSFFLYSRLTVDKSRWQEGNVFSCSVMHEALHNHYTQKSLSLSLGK
light: DIQMTQSPSSLSASVGDRVTITCKASQSVSNDVAWYQQKPGKAPKLLIYYASNRFTGVPSRFSGSGSGTDFTLTISSLQPEDFATYYCQQDYSSRTFGGGTKVEIKRTVAAPSVFIFPPSDEQLKSGTASVVCLLNNFYPREAKVQWKVDNALQSGNSQESVTEQDSKDSTYSLSSTLTLSKADYEKHKVYACEVTHQGLSSPVTKSFNRGECESKYGPPSPPSPSDTGRPFVEMYSEIPEIIHMTEGRELVIPCRVTSPNITVTLKKFPLDTLIPDGKRIIWDSRKGFIISNATYKEIGLLTCEATVNGHLYKTNYLTHRQTNTIIDVVLSPSHGIELSVGEKLVLNCTARTELNVGIDFNWEYPSSKHQHKKLVNRDLKTQSGSEMKKFLSTLTIDGVTRSDQGLYTCAASSGLMTKKNSTFVRVHEK
B5: hABTAA anti-Ang2 antibody (antibody, human IgG4 S228P, kappa, V domains shown)
VH: QVQLQESGPGLVKPSETLSLTCAVSGYSITSDYAWNWIRQPPGKGLEWMGKISYSGKTDYNPSLKSRSTISRDTSKNQFSLKLSSVTAADTAVYYCARGNFEGAMDYWGQGTLVTVSS
VL: DIQMTQSPSSLSASVGDRVTITCKASQSVSNDVAWYQQKPGKAPKLLIYYASNRYPGVPSRFSGSGSGTDFTLTISSLQPEDFATYYCQQDYSSPWTFGQGTKLEIKR
B6: 7F10B2-VH3-vegfr-VL3 (bispecific antibody, human IgG4 S228P, kappa)
heavy: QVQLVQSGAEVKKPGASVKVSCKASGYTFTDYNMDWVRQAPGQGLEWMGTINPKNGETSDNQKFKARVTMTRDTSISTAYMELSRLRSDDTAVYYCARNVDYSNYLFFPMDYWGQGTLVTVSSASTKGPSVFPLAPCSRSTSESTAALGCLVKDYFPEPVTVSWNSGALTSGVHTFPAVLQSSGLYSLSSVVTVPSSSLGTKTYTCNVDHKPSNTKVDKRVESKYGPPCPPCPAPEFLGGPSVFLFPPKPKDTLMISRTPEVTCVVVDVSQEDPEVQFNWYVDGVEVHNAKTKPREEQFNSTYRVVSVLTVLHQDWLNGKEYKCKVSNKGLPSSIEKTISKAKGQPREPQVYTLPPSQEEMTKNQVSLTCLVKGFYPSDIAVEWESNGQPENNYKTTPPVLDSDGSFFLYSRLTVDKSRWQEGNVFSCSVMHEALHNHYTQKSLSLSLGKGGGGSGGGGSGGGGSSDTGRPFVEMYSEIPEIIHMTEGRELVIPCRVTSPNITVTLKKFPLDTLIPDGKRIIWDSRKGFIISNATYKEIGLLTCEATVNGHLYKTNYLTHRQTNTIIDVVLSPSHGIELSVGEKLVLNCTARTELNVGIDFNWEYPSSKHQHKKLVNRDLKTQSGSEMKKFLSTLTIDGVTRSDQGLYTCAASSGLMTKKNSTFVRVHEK
light: DIQMTQSPSSLSASVGDRVTITCKASQSVSNDVAWYQQKPGKAPKLLIYYASNRFTGVPSRFSGSGSGTDFTLTISSLQPEDFATYYCQQDYSSRTFGGGTKVEIKRTVAAPSVFIFPPSDEQLKSGTASVVCLLNNFYPREAKVQWKVDNALQSGNSQESVTEQDSKDSTYSLSSTLTLSKADYEKHKVYACEVTHQGLSSPVTKSFNRGEC
B7: hABTAA-VHvegfr-VL (bispecific antibody, human IgG4 S228P, kappa)
heavy: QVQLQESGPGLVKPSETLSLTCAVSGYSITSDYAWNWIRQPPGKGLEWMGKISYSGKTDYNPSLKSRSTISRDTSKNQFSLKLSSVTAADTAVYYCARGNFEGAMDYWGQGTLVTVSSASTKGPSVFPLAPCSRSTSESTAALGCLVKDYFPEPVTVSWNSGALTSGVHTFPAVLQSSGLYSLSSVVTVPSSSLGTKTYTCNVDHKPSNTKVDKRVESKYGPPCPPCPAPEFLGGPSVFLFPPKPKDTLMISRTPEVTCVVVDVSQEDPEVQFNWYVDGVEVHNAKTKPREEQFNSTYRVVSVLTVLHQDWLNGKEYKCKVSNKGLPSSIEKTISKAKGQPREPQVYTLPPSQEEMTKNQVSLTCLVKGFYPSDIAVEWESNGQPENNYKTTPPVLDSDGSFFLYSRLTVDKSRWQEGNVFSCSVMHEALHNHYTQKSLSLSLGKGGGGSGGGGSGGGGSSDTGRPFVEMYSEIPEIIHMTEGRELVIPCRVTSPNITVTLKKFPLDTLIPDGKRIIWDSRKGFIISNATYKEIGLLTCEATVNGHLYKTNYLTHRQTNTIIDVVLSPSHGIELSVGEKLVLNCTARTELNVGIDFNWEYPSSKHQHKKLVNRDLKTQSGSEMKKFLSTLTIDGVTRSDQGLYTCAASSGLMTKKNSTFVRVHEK
light: DIQMTQSPSSLSASVGDRVTITCKASQSVSNDVAWYQQKPGKAPKLLIYYASNRYPGVPSRFSGSGSGTDFTLTISSLQPEDFATYYCQQDYSSPWTFGQGTKLEIKRTVAAPSVFIFPPSDEQLKSGTASVVCLLNNFYPREAKVQWKVDNALQSGNSQESVTEQDSKDSTYSLSSTLTLSKADYEKHKVYACEVTHQGLSSPVTKSFNRGEC
B8: 5F7D7-VH3-vegfr-VL5 (bispecific antibody, human IgG4 S228P, kappa)
heavy: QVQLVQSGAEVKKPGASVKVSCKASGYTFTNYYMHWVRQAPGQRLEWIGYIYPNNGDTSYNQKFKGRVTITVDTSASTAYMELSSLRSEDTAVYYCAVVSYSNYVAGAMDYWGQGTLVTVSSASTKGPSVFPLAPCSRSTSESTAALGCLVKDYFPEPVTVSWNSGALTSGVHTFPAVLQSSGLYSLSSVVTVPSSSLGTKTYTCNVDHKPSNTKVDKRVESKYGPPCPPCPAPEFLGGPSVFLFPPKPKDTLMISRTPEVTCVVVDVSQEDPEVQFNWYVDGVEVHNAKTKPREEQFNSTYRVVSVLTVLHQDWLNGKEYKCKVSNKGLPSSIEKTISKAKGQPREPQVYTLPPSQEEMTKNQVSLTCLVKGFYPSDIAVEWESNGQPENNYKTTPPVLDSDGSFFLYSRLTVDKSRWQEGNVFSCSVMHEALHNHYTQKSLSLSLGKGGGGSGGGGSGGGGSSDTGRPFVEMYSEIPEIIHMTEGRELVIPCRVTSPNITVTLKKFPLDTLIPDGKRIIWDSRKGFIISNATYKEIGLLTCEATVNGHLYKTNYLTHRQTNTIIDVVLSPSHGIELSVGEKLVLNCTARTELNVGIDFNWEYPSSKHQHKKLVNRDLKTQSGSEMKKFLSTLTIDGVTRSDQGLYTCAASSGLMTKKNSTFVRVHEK
light: B7 light with Y50F, P56T, S67Y, L73F, F83I, Y87F, W96Y, Q100G
B9: 31E2D4-VH4-vegfr-VL1 (bispecific antibody, human IgG4 S228P, kappa)
heavy: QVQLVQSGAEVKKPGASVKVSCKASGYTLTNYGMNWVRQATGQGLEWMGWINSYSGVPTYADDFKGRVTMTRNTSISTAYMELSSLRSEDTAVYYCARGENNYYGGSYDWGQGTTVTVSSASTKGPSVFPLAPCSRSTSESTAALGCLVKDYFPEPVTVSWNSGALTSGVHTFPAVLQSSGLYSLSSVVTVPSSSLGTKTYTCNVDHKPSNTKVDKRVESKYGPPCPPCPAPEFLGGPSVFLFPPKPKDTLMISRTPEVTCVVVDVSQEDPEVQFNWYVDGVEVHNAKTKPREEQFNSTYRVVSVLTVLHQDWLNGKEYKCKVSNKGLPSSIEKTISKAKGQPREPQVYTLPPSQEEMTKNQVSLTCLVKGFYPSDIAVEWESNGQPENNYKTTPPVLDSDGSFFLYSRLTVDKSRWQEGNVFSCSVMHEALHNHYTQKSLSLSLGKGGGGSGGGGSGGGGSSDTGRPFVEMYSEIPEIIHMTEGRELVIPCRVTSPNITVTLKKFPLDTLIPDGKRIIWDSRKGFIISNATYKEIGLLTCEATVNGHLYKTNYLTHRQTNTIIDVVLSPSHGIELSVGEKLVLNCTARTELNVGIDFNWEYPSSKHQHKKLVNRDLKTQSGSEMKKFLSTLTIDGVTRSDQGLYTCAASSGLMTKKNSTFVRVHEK
light: B7 light with P56T, W96L, Q100G

Biological target: T1, Ang2 protein (R&D system)
Assay: cell-based or functional assay

Row | Binder | EC50 (phospho-Akt Ser473 HTRF dose-response, HUVEC + Ang2) | Span (phospho-Akt Ser473 HTRF dose-response, HUVEC + Ang2)
1 | B1 | 3.25 nM | 5440 HTRF ratio (665nm/620nm)
2 | B2 | 4.36 nM | 6380 HTRF ratio (665nm/620nm)
3 | B3 | 4.72 nM | 7740 HTRF ratio (665nm/620nm)
4 | B4 | 2.27 nM | 7460 HTRF ratio (665nm/620nm)
5 | B5 | 2.53 nM | 5590 HTRF ratio (665nm/620nm)
6 | B6 | 2.59 nM | 7330 HTRF ratio (665nm/620nm)
7 | B7 | 883 nM | 14300 HTRF ratio (665nm/620nm)
8 | B8 | ~2.12 nM | 7020 HTRF ratio (665nm/620nm)
9 | B9 | 2.39 nM | 7380 HTRF ratio (665nm/620nm)
